Measurements reported in publication PMC1334386 (PLoS Biology, 2006).
Entries after “also recorded” stand apart in the source; their conditions may differ.

B1: MDM2 fragment residues 223–289: MDM2 fragment encompassing residues 223–289 (protein)
chain: DLDAGVSEHSGDWLDQDSVSDQFSVEFEVESLDSEDYSLSEEGQELSDEDDEVYQVTVYQAGESDTD
B2: MDM2 (residues 208–289): MDM2 fragment, residues 208–289 (protein)
chain: ERSSSSESTGTPSNPDLDAGVSEHSGDWLDQDSVSDQFSVEFEVESLDSEDYSLSEEGQELSDEDDEVYQVTVYQAGESDTD
B3: MDM2 fragment residues 170–232: MDM2 fragment encompassing residues 170–232 (protein)
chain: ENSDELSGERQRKRHKSDSISLSFDESLALCVIREICCERSSSSESTGTPSNPDLDAGVSEHS

Tests used:
[1] = target: T1, HAUSP TRAF-like domain (residues 53–206) (Homo sapiens, UniProt Q93009); assay: gel filtration binding assay of MDM2 fragments with HAUSP TRAF-like domain; conditions: Superdex-200, HAUSP residues 53–206, 25 mM Tris pH 8.0, 100 mM NaCl, 2 mM DTT, 4 °C
T1 construct: GST (N); made in house; host or cells: Escherichia coli BL21(DE3), vector pGEX-2T
T1 sequence (Q93009 53-206): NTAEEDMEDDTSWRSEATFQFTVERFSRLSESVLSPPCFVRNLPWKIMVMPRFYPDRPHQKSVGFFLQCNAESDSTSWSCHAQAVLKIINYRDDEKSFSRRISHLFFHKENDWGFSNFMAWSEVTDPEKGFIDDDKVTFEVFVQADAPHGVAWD
Protocol: (§1) Size-exclusion chromatography (gel filtration), using a Superdex-200 column (10/30, Amersham Pharmacia Biotech, Piscataway, New Jersey, United States), was employed to carry out all the in vitro binding assays. Proteins subjected to binding tests were incubated at 4 °C for at least 45 min to allow equilibrium to be reached. The flow rate was 0.5 ml/min, and the buffer contained 25 mM Tris (pH 8.0), 100 mM NaCl, and 2 mM DTT. All fractions were collected at 0.5 ml each. Aliquots of relevant fractions were mixed with SDS sample buffer and subjected to SDS-polyacrylamide gel electrophoresis. The proteins were visualized by Coomassie Blue staining. The column was calibrated with molecular-mass standards.

[2] = test system: HAUSP TRAF-like domain (residues 1–206); assay: gel filtration binding assay with HAUSP (residues 1–206); conditions: Superdex-200, 25 mM Tris pH 8.0, 100 mM NaCl, 2 mM DTT, 4 °C, SDS-PAGE/Coomassie, protein alone, no competitor
Protocol: as §1

[3] = test system: HAUSP TRAF-like domain (residues 1–206); assay: in vitro competition assay using gel filtration chromatography, MDM2 versus p53; format: binding; conditions: 10-fold molar equivalence of p53 (351–382) preincubated with HAUSP 5 min at 4 °C, then one molar equivalence of MDM2 (208–289) 45 min at 4 °C, SDS-PAGE/Coomassie

Molecule | complex formation with HAUSP TRAF-like domain [1] | complex formation with HAUSP (residues 1–206) [2] | complex formation with HAUSP in competition [3]
B1 | formed a stable complex | – | –
B2 | – | interacts | formed a stable complex only with MDM2; also recorded: formed a stable complex with HAUSP
B3 | formed a stable complex | – | –
